Assay results as given in article PMC7238434 (Nature protocols, 2019).
Where no end group is shown, it is not given here.

Assays:
[1] = molecular target: p7 protein from the Hepatitis C virus (HCV) (Hepatitis C virus) (UniProt O39928); test: cross-linking
[2] = molecular target: the molecule itself; test: cross-linking
[3] = molecular target: transmembrane domain of Fas (Fas-TMD); test: SDS-PAGE

p7 protein from the Hepatitis C virus (HCV) (from UniProt O39928 748-810) (natural protein)
stoichiometry N [1]: 6

RSNLGWLCLLLLPIPLIVWVKRKEVQKT-His6 (domain or fragment, also: primary amines blocked with Sulfo-NHS Acetate) [Fas-TMD with a C-terminal His6-tag]
stoichiometry N [2]: 3

RSNLGWLCLLLLPIPLIVWVKRKEVQKT (domain or fragment, modifications not checked) [transmembrane domain of Fas (Fas-TMD)]
stoichiometry N [3]: 3
